Data from IntAct's records for PubMed 23066109.

B1: Tudor domain-containing protein 3 (Homo sapiens), Q9H7E2 (parent)
chain: MLRLQMTDGHISCTAVEFSYMSKISLNTPPGTKVKLSGIVDIKNGFLLLNDSNTTVLGGEVEHLIEKWELQRSLSKHNRSNIGTEGGPPPFVPFGQKCVSHVQVDSRELDRRKTLQVTMPVKPTNDNDEFEKQRTAAIAEVAKSKETKTFGGGGGGARSNLNMNAAGNRNREVLQKEKSTKSEGKHEGVYRELVDEKALKHITEMGFSKEASRQALMDNGNNLEAALNVLLTSNKQKPVMGPPLRGRGKGRGRIRSEDEEDLGNARPSAPSTLFDFLESKMGTLNVEEPKSQPQQLHQGQYRSSNTEQNGVKDNNHLRHPPRNDTRQPRNEKPPRFQRDSQNSKSVLEGSGLPRNRGSERPSTSSVSEVWAEDRIKCDRPYSRYDRTKDTSYPLGSQHSDGAFKKRDNSMQSRSGKGPSFAEAKENPLPQGSVDYNNQKRGKRESQTSIPDYFYDRKSQTINNEAFSGIKIEKHFNVNTDYQNPVRSNSFIGVPNGEVEMPLKGRRIGPIKPAGPVTAVPCDDKIFYNSGPKRRSGPIKPEKILESSIPMEYAKMWKPGDECFALYWEDNKFYRAEVEALHSSGMTAVVKFIDYGNYEEVLLSNIKPIQTEAWEEEGTYDQTLEFRRGGDGQPRRSTRPTQQFYQPPRARN

Variants of: B1
Conditions: with rpb1_human POLR2A

Variant	effect of a mutation on the interaction
Y566F	disrupting interaction
Y566W	increasing interaction
W567S	decreasing interaction
D569A	disrupting interaction

Variants of: B1
Conditions: with rpb1_human POLR2A
Remark: another data set of the same source

Variant	effect of a mutation on the interaction
Y566F	with no effect
